This is an account of results in article PMC11551957 (ACS Applied Materials & Interfaces, 2024).

The target of the experiment is T1, MPER-TM(654-709) polypeptide (HIV-1, UniProt P04578).
T1 construct: also called MPER-TMD polypeptide; MPER-TMD construct
The experiment in a line: flow cytometry on cells; stable HEK293T cells expressing the antigen; 10^6 cells; Fab-mVenus variants at 2 μg/mL, 30 min, RT, FACS buffer (PBS, 0.1% FBS); mVenus fluorescence read; Env cells with or without preincubation with Ig-mD1.22 (20 μg/mL, 30 min). The note with it: one partner purified. (In flow cytometry, cells or beads pass a laser one at a time.)

B1: 10E8 Fab-mVenus S65C conjugated with Fus4 (Fab, V domains shown)
VH: EVQLVESGGGLVKPGGSLRLSCSASGFDFDNAWMTWVRQPPGKGLEWVGRITGPGEGWSVDYAAPVEGRFTISRLNSINFLYLEMNNLRMEDSGLYFCARTGKYYDFWSGYPPGEEYFQDWGRGTLVTVSS
VL: SYELTQETGVSVALGRTVTITCRGDSLRSHYASWYQKKPGQAPILLFYGKNNRPSGVPDRFSGCASGNRASLTISGAQAEDDAEYYCSSRDKSGSRLSVFGGGTKLTVL
For B1, the binding result is recorded as “binds”.

B2: 10E8 Fab-mVenus S65C conjugated with Lin3 (Fab, V domains shown)
VH: EVQLVESGGGLVKPGGSLRLSCSASGFDFDNAWMTWVRQPPGKGLEWVGRITGPGEGWSVDYAAPVEGRFTISRLNSINFLYLEMNNLRMEDSGLYFCARTGKYYDFWSGYPPGEEYFQDWGRGTLVTVSS
VL: SYELTQETGVSVALGRTVTITCRGDSLRSHYASWYQKKPGQAPILLFYGKNNRPSGVPDRFSGCASGNRASLTISGAQAEDDAEYYCSSRDKSGSRLSVFGGGTKLTVL
On to B2, for which the binding result is “binds”.
